Patent US20220041738A1 (SAITAMA MEDICAL UNIVERSITY, published 2022)

T1: human ALK2-R375P on cells (human, UniProt Q04771 21-509)
T1 sequence: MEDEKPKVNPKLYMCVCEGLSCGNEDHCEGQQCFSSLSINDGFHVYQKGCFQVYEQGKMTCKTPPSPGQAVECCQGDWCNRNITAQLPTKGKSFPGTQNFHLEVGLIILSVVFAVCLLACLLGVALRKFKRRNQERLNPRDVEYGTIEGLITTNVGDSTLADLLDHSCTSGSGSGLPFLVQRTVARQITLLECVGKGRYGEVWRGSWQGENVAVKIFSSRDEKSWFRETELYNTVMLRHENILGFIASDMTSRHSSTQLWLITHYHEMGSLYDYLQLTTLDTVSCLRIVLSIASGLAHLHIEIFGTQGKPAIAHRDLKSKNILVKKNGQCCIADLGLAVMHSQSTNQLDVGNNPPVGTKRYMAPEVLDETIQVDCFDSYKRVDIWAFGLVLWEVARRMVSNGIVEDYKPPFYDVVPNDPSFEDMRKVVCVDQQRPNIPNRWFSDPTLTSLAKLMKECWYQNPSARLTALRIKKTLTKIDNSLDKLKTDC

T2: human ALK2-G328R on cells (human, UniProt Q04771 21-509)
T2 sequence: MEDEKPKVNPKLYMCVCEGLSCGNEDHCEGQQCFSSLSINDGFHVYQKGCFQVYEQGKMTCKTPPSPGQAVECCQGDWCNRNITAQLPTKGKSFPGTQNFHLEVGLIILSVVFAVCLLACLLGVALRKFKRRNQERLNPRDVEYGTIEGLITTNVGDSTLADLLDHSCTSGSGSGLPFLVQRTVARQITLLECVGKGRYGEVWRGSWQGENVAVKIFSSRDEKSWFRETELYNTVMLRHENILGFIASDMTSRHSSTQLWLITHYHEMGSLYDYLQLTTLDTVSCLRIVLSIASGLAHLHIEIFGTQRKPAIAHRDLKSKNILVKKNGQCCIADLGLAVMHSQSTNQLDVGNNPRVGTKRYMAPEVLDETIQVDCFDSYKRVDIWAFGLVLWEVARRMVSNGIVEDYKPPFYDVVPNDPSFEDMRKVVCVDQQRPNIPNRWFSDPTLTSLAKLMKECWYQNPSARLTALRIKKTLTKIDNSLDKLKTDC


Legend:
[1] = target: T1, human ALK2-R375P on cells; experiment: immunofluorescence on transfected, formalin-fixed C2C12 cells, IgG at 10 µg/mL, Alexa 594 anti-rat IgG
Procedure, shortened: (§1)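 C2C12 mouse myoblasts transfected overnight with human ALK2 cDNA (wild-type or FOP variants incl. G325A, pcDEF3 vector). Cells formalin-fixed, goat-serum blocked, stained 1 h RT with purified IgG at 10 µg/mL, then Alexa 594 anti-rat IgG 1 h; DAPI nuclei, fluorescence microscopy read-out.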

[2] = target: T2, human ALK2-G328R on cells; experiment: as above
Procedure, shortened: as §1

Row | binding result [1] | binding result [2] | Binder
1 | binds | binds | rat anti-ALK2 monoclonal antibody A2-27D (antibody, V domains shown, Rat monoclonal IgG from a hybridoma; also called 27D11) VH: EVQLVESGGGLVQPGRSLKLSCLASGSTFSNYGMKWIRQAPGKGLEWVASISRSSTYIYYADTVKGRFTISRDNARNTLYLQMTSLRSEDTALYYCAAAISTPFYWYFDFWGPGTVVTVSS VL: EIVLTQSPTTMAASPGEKVTLNCLASSSVSYMTWYQQKSGASPKLWIYGTSNLASGVPNRFSGSGSGTSYSLAISSMEAEDVATYYCLHLTSYPPYTFGAGTKLELKR
2 | binds | binds | rat anti-ALK2 monoclonal antibody A2-25C (antibody, V domains shown, Rat monoclonal IgG from a hybridoma; also called 25C11) VH: EVQLVESGGGLVQPGGSLKLSCAASGFTFSYYAMSWVCQAPTKGLEWVASISRGGDNTYYRDTVKGRFTTSRDNAKNTLYLQMDSLRSEDTATYYCARLNYNNYFDYWGQGVMVTVSS VL: DIQMTQSPASLSASLEEIVTITCQASQDIGNWLSWYQQKPGKSPQLLIYGATSLADGVPSRFSGSRSGTQYSLKISRLRVEDIGIYYCLQAYSAPFTFGSGTKLEIKR
